# Assay results taken from US20190300605A1 (Pfizer, published 2019).
# T1: human MAdCAM (full length) (human, UniProt Q13477 19-382)
# T1 sequence (looked up): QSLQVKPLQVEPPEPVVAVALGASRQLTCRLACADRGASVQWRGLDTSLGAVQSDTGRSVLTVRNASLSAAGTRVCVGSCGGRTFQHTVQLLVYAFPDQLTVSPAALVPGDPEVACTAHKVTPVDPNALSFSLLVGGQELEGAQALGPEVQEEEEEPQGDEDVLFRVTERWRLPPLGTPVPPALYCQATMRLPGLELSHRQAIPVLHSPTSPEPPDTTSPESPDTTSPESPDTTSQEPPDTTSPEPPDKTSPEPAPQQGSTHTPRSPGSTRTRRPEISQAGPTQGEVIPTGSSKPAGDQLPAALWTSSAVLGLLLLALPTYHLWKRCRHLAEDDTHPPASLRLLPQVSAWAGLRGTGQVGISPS
# T2: recombinant mouse MAdCAM (mouse, UniProt Q61826 22-365)
# T2 sequence (looked up): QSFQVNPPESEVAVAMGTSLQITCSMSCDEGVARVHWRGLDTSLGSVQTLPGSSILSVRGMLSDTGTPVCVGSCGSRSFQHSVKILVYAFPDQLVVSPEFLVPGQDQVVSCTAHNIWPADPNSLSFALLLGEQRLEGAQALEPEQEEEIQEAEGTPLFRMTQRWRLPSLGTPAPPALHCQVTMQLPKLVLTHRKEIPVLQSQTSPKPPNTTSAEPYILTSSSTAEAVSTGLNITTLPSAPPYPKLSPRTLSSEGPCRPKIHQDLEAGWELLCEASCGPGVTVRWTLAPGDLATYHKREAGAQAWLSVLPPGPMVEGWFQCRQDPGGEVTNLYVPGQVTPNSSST
# T3: chimeric cynomolgus/human MAdCAM (cynomolgus; human, UniProt Q13477 226-382, limits assumed)
# T3 sequence: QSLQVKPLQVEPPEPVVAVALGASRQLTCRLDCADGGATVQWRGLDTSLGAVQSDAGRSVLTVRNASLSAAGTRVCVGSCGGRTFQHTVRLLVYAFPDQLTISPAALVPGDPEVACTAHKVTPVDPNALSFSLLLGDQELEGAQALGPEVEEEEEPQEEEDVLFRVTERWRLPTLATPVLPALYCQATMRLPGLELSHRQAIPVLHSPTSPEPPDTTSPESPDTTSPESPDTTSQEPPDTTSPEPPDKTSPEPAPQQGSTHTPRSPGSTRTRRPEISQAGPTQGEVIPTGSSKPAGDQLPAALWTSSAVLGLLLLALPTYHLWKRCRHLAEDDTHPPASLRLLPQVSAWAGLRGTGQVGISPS
# Legend:
# [1] = target: T1, human MAdCAM (full length); assay: cell-based or functional assay
# [2] = target: MAdCAM-IgG1 Fc fusion protein (human); assay: cell-based or functional assay
# recombinant mouse MAdCAM = target: T2, recombinant mouse MAdCAM; assay: ELISA
# [3] = target: T4, MAdCAM-IgG1 Fc fusion protein (human); assay: SPR BIAcore protocol 1: mAb captured, MAdCAM-IgG1 Fc injected
# T4 construct: Made in CHO-DHFR cells; also called MAdCAM-IgFc
# Procedure: To perform kinetic analyses, a high density mouse anti-human (IgG₂ and IgG₄) antibody surface over a CMS BIAcore sensor chip was prepared using routine amine coupling. Hybridoma supernatants were diluted 10, 5, 2-fold in HBS-P (10 mM HEPES pH 7.4, 150 mM NaCl, 0.005% Surfactant P20) running buffer containing 100 μg/mL BSA and 10 mg/mL carboxymethyldextran or used neat. Each mAb was captured onto a separate surface using a […] contact time and a 5 mM wash for stabilization of the mAb baseline. MAdCAM-IgG₁ Fc (141 nM) fusion protein was then injected at over all surfaces for one minute, followed by a 3 mM dissociation. The data were normalized for the amount of antibody captured on each surface and evaluated with global fit Langmuir 1:1, using baseline drift models available on the BIAevaluation software provided by BIAcore.
# [4] = target: T4, MAdCAM-IgG1 Fc fusion protein; assay: cell-based or functional assay; remark: listed apart in the source
# [5] = target: T4, MAdCAM-IgG1 Fc fusion protein; assay: SPR BIAcore protocol 2: mAb amine-coupled, MAdCAM-IgG1 Fc injected
# Procedure: Affinity-purified mAb were immobilized onto the dextran layer of a CMS biosensor chip using amine coupling. […] Samples of MAdCAM-IgG₁ Fc fusion protein in running buffer were prepared at concentrations ranging from 0.2-55 nM (a 0 nM solution comprising running buffer alone was included as a zero reference). Samples were randomized and injected in duplicate for 3 mM each across 4 flow cells using HBS-EP (10 mM HEPES pH 7.4, 150 mM NaCl, 3 mM EDTA, 0.005% Surfactant P20) as running buffer. A flow rate of 100 μL/min was used to minimize mass transport limitations. Dissociation of MAdCAM-IgG₁ Fc fusion protein was monitored for 180 mins, the surface regenerated by a 6 sec injection of 25 mM H₃PO₄ (50 μL/min), or 10 mM (6.22.2), 20 mM (6.67.1, 6.73.2, 6.77.1) to 25 mM (6.34.2) and 45 mM NaOH (6.14.2) and the data analysed using the BIAevaluation (v3.1) software package.
# [6] = target: T3, chimeric cynomolgus/human MAdCAM; assay: cell-based or functional assay
Binder,"Mean IC50, JY cell adhesion, MAdCAM FlpIn CHO Assay [1]","Mean IC50, JY cell adhesion to MAdCAM IgG1 Fc fusion [2]",binding result (recombinant mouse MAdCAM),Kd [3],koff [3],kon [3],MAdCAM IgG1 Fc fusion Assay Mean IC50 (Modified) [4],Kd [5],koff [5],kon [5],"Functional IC50, cynomolgus/human MAdCAM-CHO/JY adhesion assay [6]"
"anti-MAdCAM monoclonal antibody 6.73.2 (antibody, human IgG4, kappa, V domains shown, human IgG4 kappa from hybridoma 6.73.2) VH: EVQLLESGGDLVQPGGSLRLSCAASGFTFRSYAMNWVRQAPGKGLEWVSVISGRGGTTYYADSVKGRFTISRDNSKNTLYLQMNSLRAEDAAVYYCAKIAVAGEGLYYYYGMDVWGQGTTVTVSS VL: DIQMTQSPSSLSASVGDRVTFTCRASQNITNYLNWYQQKPGKAPKLLIYAASSLPRGVPSRFRGSGSGTDFTLTISSLQPEDFATYYCQQSYSNPPECGFGQGTTLDIKR",0.369 µg/mL,0.02 µg/mL,no binding,0.093 nM,0.00013 s⁻¹,1.4e+06 M⁻¹ s⁻¹,,,,,
"anti-MAdCAM monoclonal antibody 1.7.2 (antibody, human IgG2, kappa, V domains shown, human IgG2 kappa from hybridoma 1.7.2; biotinylated for staining of human sections) VH: EVQLVESGGGLVKPGGSLRLSCVASGFTFTNAWMIWVRQAPGKGLEWVGRIKRKTDGGTTDYAAPVKGRFTISRDDSKNTLYLQMNSLKTEDTAVYYCTTGGVAEDYWGQGTLVTVSS VL: not shown",0.052 µg/mL,0.03 µg/mL,no binding,≤ 0.042 nM,≤ 1e-05 s⁻¹,240000 M⁻¹ s⁻¹,,0.0236 nM,1.3e-07 s⁻¹,5500 M⁻¹ s⁻¹,
"anti-MAdCAM monoclonal antibody 1.8.2 (antibody, human IgG2, kappa, V domains shown, human IgG2 kappa from hybridoma 1.8.2) VH: EVQLVESGGGLVKPGGSLRLSCVVSGFTFTNAWMIWVRQAPGKGLEWVGRIKRKTDGGTTDYAAPVKGRFTISRDDSKNTLYLQMNSLKTEDTAVYYCTTGGVAEDYWGQGTLVTVSS VL: not shown",0.424 µg/mL,0.027 µg/mL,no binding,≤ 0.035 nM,≤ 1e-05 s⁻¹,290000 M⁻¹ s⁻¹,,0.128 nM,2.3e-05 s⁻¹,180000 M⁻¹ s⁻¹,
"modified anti-MAdCAM monoclonal antibody 7.26.4-mod (antibody, human IgG2, kappa, V domains shown) VH: QVQLVQSGAEVKKPGASVKVSCEASGYTFTSYGIDWVRQAPGQGLEWMGWISVYSGNTNYAQKLQGRVTMSTDTSTSTAYMELRSLRSDDTAVYYCAREGSSSSGDYYYGMDVWGQGTTVTVSS VL: DIVMTQTPLSLSVTPGQPASISCKSSQSLLYSDGKTYLFWYLQKPGQPPQLLIYEVSNRFSGVPDRFSGSGSGTDFTLKISRVEAEDVGVYYCMQSIQLPWTFGQGTKVEIKR",,,,,,,0.033 µg/mL,,,,
"anti-MAdCAM monoclonal antibody 6.77.1 (antibody, human IgG4, kappa, V domains shown, human IgG4 kappa from hybridoma 6.77.1) VH: EVQLVESGGGLVKPGGSLRLSCAASGFTFSSYSMNWVRQAPGKGLEWVSSISSSSSYIYYADSVKGRFTISRDNAKNSLYLQMNSLRAEDTAVYYCARDGYSSGWSYYYYYGMDVWGQGTTVTVSS VL: DIVMTQTPLSLSVTPGQPASISCNSSQSLLLSDGKTYLNWYLQKPGQPPQLLIYEVSNRFSGVPDRFSGSGSGTDFTLKISRVEAEDVGVYSCMQSIQLMCSFGQGTKLEIKR",0.52 µg/mL,,no binding,≤ 0.0067 nM,≤ 1e-05 s⁻¹,1.5e+06 M⁻¹ s⁻¹,,,,,0.64 µg/mL
"modified anti-MAdCAM monoclonal antibody 6.22.2-mod (antibody, human IgG2, kappa, V domains shown) VH: QVQLVESGGGVVQPGRSLRLSCAASGFTFSSDGMHWVRQAPGKGLEWVAIIWYDGSNKYYADSVKGRFTISRDNSKNTLYLQMNSLRAEDTAVYYCARDPGYYYGMDVWGQGTTVTVSS VL: EIVLTQSPDFQSVTPKEKVTITCRASQRIGSSLHWYQQKPDQSPKLLIKYASQSFSGVPSRFSGSGSGTDFTLTINSLEAEDAATYYCHQSGRLPLTFGGGTKVEIKR",,,,,,,0.058 µg/mL,,,,
"anti-MAdCAM monoclonal antibody 6.14.2 (antibody, human IgG4, kappa, V domains shown, human IgG4 kappa from hybridoma 6.14.2) VH: EVQLLESGGGLVQPGGSLRLSCAASGLTFNNSAMTWVRQAPGKGLEWVSTTSGSGGTTYYADSVKGRFTISRDSPKNTLYLQMNSLRAEDTAVYYCAARGYSYGTTPYEYWGQGTLVTVSS VL: DIQMTQSPSSLSASVGDRVTITCRASRSISSYLNWYQQKPGKAPKVLIFFVSSLQSGVPSRFSGSGSGTDFTLTISSLQPEDFATYYCQQNYIPPITFGQGTRLEIRR",0.291 µg/mL,0.011 µg/mL,no binding,≤ 0.0077 nM,≤ 1e-05 s⁻¹,130000 M⁻¹ s⁻¹,,< 0.01 nM,< 5e-06 s⁻¹,500000 M⁻¹ s⁻¹,0.53 µg/mL
"anti-MAdCAM monoclonal antibody 9.8.2 (antibody, human IgG4, kappa, V domains shown, human IgG4 kappa from hybridoma 9.8.2) VH: QVQLVESGGGVVQPGRSLRLSCAASGFTFSSYGMHWVRQAPGKGLEWVAVIWYDGSNEYYADSVKGRFTISRDNSKNTLYLQMNSLRAEDTAVYYCARGAYHFAYWGQGTLVTVSS VL: DIQMTQSPSSLSASVGDRVTITCQASQDISNYLNWYQQKPGKAPKLLIYDASNLETGVPSRFSGSGSGTDFTFTISSLQPEDIATYSCQHSDNLSITFGQGTRLEIKR",0.44 µg/mL,0.02 µg/mL,no binding,0.1 nM,0.00023 s⁻¹,2.3e+06 M⁻¹ s⁻¹,,0.0325 nM,1.4e-05 s⁻¹,440000 M⁻¹ s⁻¹,0.83 µg/mL

# Next, values leading:
"Mean IC50, JY cell adhesion, MAdCAM FlpIn CHO Assay [1]","Mean IC50, JY cell adhesion to MAdCAM IgG1 Fc fusion [2]",binding result (recombinant mouse MAdCAM),Kd [3],koff [3],kon [3],MAdCAM IgG1 Fc fusion Assay Mean IC50 (Modified) [4],Kd [5],koff [5],kon [5],"Functional IC50, cynomolgus/human MAdCAM-CHO/JY adhesion assay [6]",Binder
,,,,,,0.037 µg/mL,,,,,"modified anti-MAdCAM monoclonal antibody 6.67.1-mod (antibody, human IgG2, kappa, V domains shown) VH: QVQLQESGPGLVKPSETLSLTCTVSGDSISSNYWSWIRQPAGKGLEWIGRIYTSGGTNSNPSLRGRVTMSVDTSKNQFSLKLSSVTAADTAVYYCARDRITIIRGLIPSFFDYWGQGTLVTVSS VL: not shown"
,,,,,,0.049 µg/mL,,,,,"modified anti-MAdCAM monoclonal antibody 6.34.2-mod (antibody, human IgG2, kappa, V domains shown) VH: QVQLVESGGGVVQPGRSLRLSCAASGFTFSSYGMHWVRQAPGKGLEWVAVISNDGNNKYYADSVKGRFTISRDNSKNTLYLQMNSLRAEDTAVYYCARDSTAITYYYYGMDVWGQGTTVTVSS VL: DIQMTQSPSSLSASVGDRVTITCRASQSISSYLNWYQQKPGKAPKLLIYAASGLKRGVPSRFSGSGSGTDFTLTISSLQPEDFATYYCHQSYSLPFTFGPGTKVDIKR"
,,,,,,0.077 µg/mL,,,,,"modified anti-MAdCAM monoclonal antibody 6.77.1-mod (antibody, human IgG2, kappa, V domains shown) VH: EVQLVESGGGLVKPGGSLRLSCAASGFTFSSYSMNWVRQAPGKGLEWVSSISSSSSYIYYADSVKGRFTISRDNAKNSLYLQMNSLRAEDTAVYYCARDGYSSGWSYYYYYGMDVWGQGTTVTVSS VL: DIVMTQTPLSLSVTPGQPASISCKSSQSLLLSDGKTYLNWYLQKPGQPPQLLIYEVSNRFSGVPDRFSGSGSGTDFTLKISRVEAEDVGVYSCMQSIQLMSSFGQGTKLEIKR"
,,no binding,,,,,,,,,"anti-MAdCAM monoclonal antibody 7.16.6 (antibody, human IgG2, kappa, V domains shown, Alexa488-labelled in the sandwich ELISA, biotinylated for staining of human sections) VH: QVQLVQSGAEVKKPGASVKVSCKASGYTFTSYGINWVRQAPGQGLEWMGWISVYSGNTNYAQKVQGRVTMTADTSTSTAYMDLRSLRSDDTAVYYCAREGSSSSGDYYYGMDVWGQGTTVTVSS VL: DIVMTQTPLSLSVTPGQPASISCKSSQSLLHTDGTTYLYWYLQKPGQPPQLLIYEVSNRFSGVPDRFSGSGSGTDFTLKISRVEAEDVGIYYCMQNIQLPWTFGQGTKVEIKR"
